The values that follow come from publication PMC11602162, “A compact stem-loop DNA aptamer targets a uracil-binding pocket in the SARS-CoV-2 nucleocapsid RNA-binding domain”.

For series [1], the target named is T1, N-NTD (SARS-CoV-2 (Wuhan-Hu-1), UniProt P0DTC9 46-174). In words: fluorescence anisotropy; 10 mM Tris-HCl pH 7.4, 150 mM NaCl, 1 mM MgCl2; […]; BLI with 0.05% Tween-20; […]. (In general: In fluorescence polarisation assays a small probe gives low polarisation when free and higher when bound to something large.)
Series [2] concerns the target N-NTD (SARS-CoV-2 (Wuhan-Hu-1), UniProt P0DTC9 46-174). In words: competition fluorescence anisotropy; probe N11; 10 mM Tris-HCl pH 7.4, 150 mM NaCl, 1 mM MgCl2; FA with 0.1 mg/ml BSA at 25 C; BLI with 0.05% Tween-20; SEC at ambient temperature. Conditions: protein: recombinant, tags: N-terminal 6xHis removed by HRV 3C.
In series [3] the target is T1, N-NTD. The series is described as follows: fluorescence anisotropy; 1 mM Mg2+; 10 mM Tris-HCl pH 7.4, 150 mM NaCl, 1 mM MgCl2; […]; BLI with 0.05% Tween-20; […].
The target in series [4] is T1, N-NTD. The series is described as follows: competition fluorescence anisotropy; probe N11; 10 mM Tris-HCl pH 7.4, 150 mM NaCl, 1 mM MgCl2; […]; BLI with 0.05% Tween-20; […].
Series [5] addresses T2, N protein full-length (SARS-CoV-2 (Wuhan-Hu-1), UniProt P0DTC9 1-419). The series is described as follows: BLI; immobilized DNA, avidity; 10 mM Tris-HCl pH 7.4, 150 mM NaCl, 1 mM MgCl2; FA with 0.1 mg/ml BSA at 25 C; BLI with 0.05% Tween-20; SEC at ambient temperature. Conditions: protein: recombinant, tags: 6xHis-thioredoxin removed by HRV 3C, chain copies: 2, hairpin. On the technique in general: In BLI a coated tip is dipped into the sample, and binding shifts an interference pattern.

The target in series [6] is T2, N protein full-length. In words: fluorescence anisotropy; Hill slope 2.3; 10 mM Tris-HCl pH 7.4, 150 mM NaCl, 1 mM MgCl2; FA with 0.1 mg/ml BSA at 25 C; BLI with 0.05% Tween-20; SEC at ambient temperature. Conditions: protein: recombinant; tags: 6xHis-thioredoxin removed by HRV 3C; chain copies: 2; hairpin.
Series [7] has as its target T1, N-NTD. In words: DSF; 10 mM Tris-HCl pH 7.4, 150 mM NaCl, 1 mM MgCl2; […]; BLI with 0.05% Tween-20; […]. On the technique in general: Differential scanning fluorimetry follows unfolding on heating by fluorescence.
For series [8], the target named is T1, N-NTD. In words: competition fluorescence anisotropy; 10 mM Tris-HCl pH 7.4, 150 mM NaCl, 1 mM MgCl2; […]; BLI with 0.05% Tween-20; […].
For series [9], the target named is T2, N protein full-length. The series is described as follows: fluorescence anisotropy; Hill slope 0.91; 10 mM Tris-HCl pH 7.4, 150 mM NaCl, 1 mM MgCl2; FA with 0.1 mg/ml BSA at 25 C; BLI with 0.05% Tween-20; SEC at ambient temperature. The settings on record: protein: recombinant, tags: 6xHis-thioredoxin removed by HRV 3C, chain copies: 2, label: […], 5' biotin in BLI, hairpin, 2 bp stem.

B1: A58-20-2'FG3-iT6FAM (XNA)
DNA: TCGGACATCGGATTGTCTGA
modifications: 2'-fluoro-dG at position 10 (loop G3); i6-FAMK at position 13 (loop T6)
B1 had a Kd with N-NTD [1] of 13.9 nM.

B2: poly-rU15 (ssRNA)
RNA: UUUUUUUUUUUUUUU
Broadly, the Ki is a measure of affinity in units of concentration, obtained from inhibition or displacement. For B2, in the series with N-NTD [2], the Ki was 7800 nM.

B3: poly-dT15 (ssDNA)
DNA: TTTTTTTTTTTTTTT
Take B3: the Ki in the series with N-NTD [2] worked out at 4120 nM.

B4: A58-20 (ssDNA)
DNA: TCGGACATCGGATTGTCTGA
Regarding B4, the Kd with N-NTD [3] came out at 101 nM; with N protein full-length [5], 0.0101 nM; with N protein full-length [6], 78.2 nM. In the series with N-NTD [4], this molecule displayed a Ki of 50.5 nM.

B5: A58 (A58-58) (ssDNA)
DNA: GCTGGATGTCACCGGATTGTCGGACATCGGATTGTCTGAGTCATATGACACATCCAGC
Consider B5, for which the affinity with N-NTD [4] corresponds to a Ki of 9.92 nM.

B6: A58-20_RNA (ssRNA)
RNA: UCGGACAUCGGAUUGUCUGA
Regarding B6, the binding signal with N-NTD [7] is -0.5 C (Tm shift). This molecule registered a Ki with N-NTD [8] of 90800 nM.

B7: A58-20-iT6FAM (ssDNA)
DNA: TCGGACATCGGATTGTCTGA
modifications: fluorescein-dT (i6-FAMK) at position 13 (loop T6)
In turn, B7 gave a Kd with N-NTD [1] of 74 nM.

B8: A58-10 (ssDNA)
DNA: CATCGGATTG
Regarding B8, the Kd with N protein full-length [5] (label: […], 5' biotin in BLI, […], 2 bp stem) was found to be 3.77 nM; in the series with N protein full-length [9], 24.9 nM.

B9: A58-20-2'FG3 (XNA)
DNA: TCGGACATCGGATTGTCTGA
modifications: 2'-fluoro-dG at position 10 (loop G3)
B9 came in with a Kd with N-NTD [1] of 74 nM.

B10: SL10 RNA (structured_RNA)
RNA: GUCCCUCAUGUGGGC
B10: the Ki with N-NTD [2] (stem-loop) is 38700 nM.

B11: A58-8 (ssDNA)
DNA: ATCGGATT
Regarding B11, the binding result with N-NTD [4] was “no binding”.

B12: SL9 RNA (structured_RNA)
RNA: UCAUGUUAUGGUUGA
In the case of B12, the inhibition constant (Ki) in the series with N-NTD [2] (stem-loop) was determined as 15400 nM.

B13: A58-20_nwb2 (ssDNA)
DNA: TCGGACATCGGATTGTCCGA
Take B13: the binding signal with N-NTD [7] was 4.5 C (Tm shift). In the series with N-NTD [1], this molecule had a Kd of 87.9 nM.

B14: A58-20_nwb1 (ssDNA)
DNA: TCAGACATCGGATTGTCTGA
Turning to B14, the binding signal in the series with N-NTD [7] is 4.5 C (Tm shift). The molecule further showed a Kd with N-NTD [1] of 84.9 nM.

B15: A58-20 TTTTTT (ssDNA)
DNA: TCGGACATTTTTTTGTCTGA
In the case of B15, the binding signal in the series with N-NTD [7] is 0.5 C (Tm shift).
